Assays:
[1] = molecular target: protein A (UniProt P38507); assay: phage ELISA on coated protein A; heat/cool assay, % of untreated sample (n = 2)
[2] = molecular target: protein A (UniProt P38507); assay: phage ELISA on coated protein A; heat/cool assay, % of untreated sample

Substance | Retained binding to protein A (%) [1] [%] | Retained binding to protein A (%) [2] [%]
DP47 VH S35D + SYA_31-33_DDD | 76.7 | 
DP47 VH S35D + YA_32/33_DD |  | 70.4
DP47 VH T28D + SYA_31-33_DDD | 74.9 | 
DP47 VH T28D + SYA_31-33_DDD + S35D | 78.6 | 
DP47 VH T28D + YA_32/33_DD | 76.1 | 
